In paper PMC12728192 (2025) one finds Kd data, which are given here for 2 molecules.

Ends that are not written are not given here.

For assay [1], the target named is T1, Thermothelomyces thermophilus SAM complex (sorting and assembly machinery complex; Sam50:Sam35:Sam37, monomer) (Thermothelomyces thermophilus). The assay is described as follows: MST; replicate 6; detergent.
Assay [2] deals with T1, Thermothelomyces thermophilus SAM …. The assay is described as follows: MST; replicate 1; detergent.
Assay [3] has the same target. Kind of assay: MST; replicate 3; detergent.

T1 sequence (chain, as listed by the source, chain 1 of 3): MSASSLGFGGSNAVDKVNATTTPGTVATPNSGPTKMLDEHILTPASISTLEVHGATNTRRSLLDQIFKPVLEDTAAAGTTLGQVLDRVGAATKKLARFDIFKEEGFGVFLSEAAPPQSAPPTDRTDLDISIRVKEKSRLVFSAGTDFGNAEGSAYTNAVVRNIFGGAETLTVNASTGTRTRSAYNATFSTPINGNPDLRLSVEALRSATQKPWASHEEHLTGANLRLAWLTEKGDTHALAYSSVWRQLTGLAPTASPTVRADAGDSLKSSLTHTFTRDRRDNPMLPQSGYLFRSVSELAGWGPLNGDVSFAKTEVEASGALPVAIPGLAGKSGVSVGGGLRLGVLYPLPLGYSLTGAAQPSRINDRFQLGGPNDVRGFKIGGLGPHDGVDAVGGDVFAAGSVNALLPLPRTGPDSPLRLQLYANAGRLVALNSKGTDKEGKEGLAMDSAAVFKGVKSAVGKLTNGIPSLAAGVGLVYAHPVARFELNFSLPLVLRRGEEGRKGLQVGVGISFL
T1 sequence (chain, as listed by the source, chain 2 of 3): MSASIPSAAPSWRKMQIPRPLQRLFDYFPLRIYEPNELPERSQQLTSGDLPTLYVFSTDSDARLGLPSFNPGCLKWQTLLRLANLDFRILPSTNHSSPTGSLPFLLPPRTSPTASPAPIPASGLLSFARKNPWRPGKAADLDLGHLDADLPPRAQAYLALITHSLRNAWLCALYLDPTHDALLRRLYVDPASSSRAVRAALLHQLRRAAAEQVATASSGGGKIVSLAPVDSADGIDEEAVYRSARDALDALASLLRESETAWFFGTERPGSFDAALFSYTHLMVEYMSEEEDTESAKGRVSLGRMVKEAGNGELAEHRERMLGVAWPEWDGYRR
T1 sequence (chain, as listed by the source, chain 3 of 3): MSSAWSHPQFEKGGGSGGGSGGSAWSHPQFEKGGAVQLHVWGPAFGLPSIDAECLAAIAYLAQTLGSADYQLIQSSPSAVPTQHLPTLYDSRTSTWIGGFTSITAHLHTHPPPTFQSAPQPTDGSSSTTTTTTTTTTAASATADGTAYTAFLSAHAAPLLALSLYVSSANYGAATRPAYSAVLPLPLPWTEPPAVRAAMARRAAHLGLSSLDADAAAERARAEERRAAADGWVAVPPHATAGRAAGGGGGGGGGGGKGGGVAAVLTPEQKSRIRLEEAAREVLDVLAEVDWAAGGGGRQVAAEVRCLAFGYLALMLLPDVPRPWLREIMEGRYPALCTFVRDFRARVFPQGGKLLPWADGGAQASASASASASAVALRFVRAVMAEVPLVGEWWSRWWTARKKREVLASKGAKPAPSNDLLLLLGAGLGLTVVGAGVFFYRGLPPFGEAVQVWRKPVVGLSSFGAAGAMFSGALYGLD

Usually Kd stands for the constant that tells how readily two partners part at equilibrium. Regarding WNWSKSF (also: backbone cyclizations, places not given here) [darobactin A], the Kd in assay [1] is 166 nM; in assay [2], 149 nM.

The molecule WNWSKSF [linear darobactin] yielded a Kd in assay [3] of 491000 nM.
